Assay [1] has as its target T1, hGPVI-hFc fusion protein (human).
T1 construct: also called GPVI-Fc fusion protein; human GPVI-Fc
Kind of assay: competition assay, GPVI-Fc pre-incubated with Fab, binding to collagen-coated plates (DELFIA), Test 1.

The target in assay [2] is T1, hGPVI-hFc fusion protein. Kind of assay: competition assay, GPVI-Fc pre-incubated with Fab, binding to collagen-coated plates (DELFIA), Test 3.
The target of assay [3] is T1, hGPVI-hFc fusion protein. The experiment in a line: competition assay, GPVI-Fc pre-incubated with Fab, binding to collagen-coated plates (DELFIA), Test 2.
In assay [4] the target is T2, human GPVI on the platelet surface (human, UniProt Q9HCN6 21-339).
T2 sequence (looked up): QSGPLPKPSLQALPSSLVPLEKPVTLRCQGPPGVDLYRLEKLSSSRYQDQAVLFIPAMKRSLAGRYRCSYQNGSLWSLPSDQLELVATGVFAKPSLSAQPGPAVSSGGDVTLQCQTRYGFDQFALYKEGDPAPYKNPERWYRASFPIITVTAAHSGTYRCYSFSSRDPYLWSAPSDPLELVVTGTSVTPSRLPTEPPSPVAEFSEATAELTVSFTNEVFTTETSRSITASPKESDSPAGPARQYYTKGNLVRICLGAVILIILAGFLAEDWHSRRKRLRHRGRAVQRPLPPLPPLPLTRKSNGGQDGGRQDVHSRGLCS
The experiment in a line: cell-based or functional assay.

B1: non-humanized Fab construct based on the original clone 390 without the His-tag (Fab, V domains shown)
VH: QVQLKESGPGLVAPSQSLSITCTVSGFSLTGYGVNWVRQPPGKGLEWLGMIWGDGSTDYNSTLKSRLSISKDNSKSQVFLKMNSLQTDDTARYYCARDLPMDYWGQGTSVTVSS
VL: DIQMTQSPSSLSASLGGKVTITCKASQDINKYIAWYQHKPGKGPSLLIHYTSTLQPGIPSRFSGSGSGRDYSFSISNLEPEDIATYYCLQYANLLTFGGGTKLEIKR
Regarding B1, the figures for the IC50 in the assay with hGPVI-hFc fusion protein [1], in the assay with hGPVI-hFc fusion protein [2] and in the assay with hGPVI-hFc fusion protein [3] were 0.49 µg/mL, 0.99 µg/mL and 0.56 µg/mL, respectively. Also, in assay [4], the “IC50 for inhibition of collagen induced platelet aggregation (human platelet rich plasma), Test 1” value (from here on “IC50 for inhibition … Test 1”) turned out to be 1.6 µg/mL. Further, the “IC50 for inhibition of collagen induced platelet aggregation (human platelet rich plasma), Test 2” value (shortened to “IC50 for inhibition … Test 2”) in assay [4] is 6.4 µg/mL. For the same molecule, in assay [4], the “IC50 for inhibition of collagen induced platelet aggregation (human platelet rich plasma), Test 3” value (“IC50 for inhibition … Test 3” below) was determined as 1.3 µg/mL.

B2: humanized anti-GPVI Fab VL1/VH2 (Fab, V domains shown)
VH: QVQLQESGPGLVAPSQSLSITCTVSGFSLTGYGVNWVRQPPSRGLEWLGMIWGDGSTDYQSTLKSRLSISKDNSKSQVFLKMNSLTTDDTARYYCARDLPMDYWGQGTSVTVSS
VL: DIQMTQSPSSLSASVGGRVTITCKASQDINKYIAWYQHKPGKGPSLLIHYTSTLQPGVPSRFSGSGSGRDYSFSISNLQPEDIATYYCLQYANLLTFGGGTKLEIKR
With B2, in assay [4], the “IC50 for inhibition … Test 1” value stood at 2.3 µg/mL; the “IC50 for inhibition … Test 2” value was found to be 2 µg/mL; the “IC50 for inhibition … Test 3” value is 1.1 µg/mL.

B3: humanized anti-GPVI Fab VL1/VH3 (Fab, V domains shown)
VH: EVQLLESGPGLVAPSGSLSITCTVSGFSLTGYGVNWVRQPPGKGLEWLGMIWGDGSTDYQSTLKSRLSISKDNSKSQVFLKMNSLRTDDTARYYCARDLPMDYWGLGTSVTVSS
VL: DIQMTQSPSSLSASVGGRVTITCKASQDINKYIAWYQHKPGKGPSLLIHYTSTLQPGVPSRFSGSGSGRDYSFSISNLQPEDIATYYCLQYANLLTFGGGTKLEIKR
As for B3, in assay [4], the “IC50 for inhibition … Test 1” value amounted to 1.7 µg/mL; the “IC50 for inhibition … Test 2” value was 1.5 µg/mL; the “IC50 for inhibition … Test 3” value amounted to 1.5 µg/mL.

B4: humanized anti-GPVI Fab VL3/VH4 (Fab, V domains shown)
VH: QVQLQESGPGLVAPSQSLSITCTVSGFSLTYYGVNWVRQPPSRGLEWLGMIWGDGSTDYQSTLKSRLSISKDNSKSQVFLKMNSLTTDDTARYYCARDLPMDYWGQGTSVTVSS
VL: DIQMTQSPSSLSASVGGRVTITCKASQDINKYIAWYQHKPGKGPSLLIHYTSTLQPGVPSRFSGSGSGRDYSFSISNLQPEDIATYYCLQYALLLTFGGGTKLEIKR
For B4, in assay [4], the “IC50 for inhibition … Test 1” value was determined as 1 µg/mL; the “IC50 for inhibition … Test 2” value stood at 2.3 µg/mL; the “IC50 for inhibition … Test 3” value amounted to 2 µg/mL.

B5: humanized anti-GPVI Fab VL2/VH2 (Fab, V domains shown)
VH: QVQLQESGPGLVAPSQSLSITCTVSGFSLTGYGVNWVRQPPSRGLEWLGMIWGDGSTDYQSTLKSRLSISKDNSKSQVFLKMNSLTTDDTARYYCARDLPMDYWGQGTSVTVSS
VL: DIQMTQSPSSLSASVGGRVTITCKASQDINKYIAWYQHKPGKGPSLLIHYTSTLQPGVPSRFSGSGSGRDYSFSISNLQPEDIATYYCLQYAHLLTFGGGTKLEIKR
In the case of B5, in assay [4], the “IC50 for inhibition … Test 1” value is 1.4 µg/mL; the “IC50 for inhibition … Test 2” value stood at 2.4 µg/mL; the “IC50 for inhibition … Test 3” value stood at 2.3 µg/mL.

B6: humanized anti-GPVI Fab VL3/VH2 (Fab, V domains shown)
VH: QVQLQESGPGLVAPSQSLSITCTVSGFSLTGYGVNWVRQPPSRGLEWLGMIWGDGSTDYQSTLKSRLSISKDNSKSQVFLKMNSLTTDDTARYYCARDLPMDYWGQGTSVTVSS
VL: DIQMTQSPSSLSASVGGRVTITCKASQDINKYIAWYQHKPGKGPSLLIHYTSTLQPGVPSRFSGSGSGRDYSFSISNLQPEDIATYYCLQYALLLTFGGGTKLEIKR
Turning to B6, in assay [4], the “IC50 for inhibition … Test 1” value is 1.9 µg/mL; the “IC50 for inhibition … Test 2” value came to 0.9 µg/mL; the “IC50 for inhibition … Test 3” value came to 2.1 µg/mL.

B7: humanized anti-GPVI Fab VL1/VH1 (Fab, V domains shown)
VH: QVQLQESGPGLVAPSQSLSITCTVSGFSLTGYGVNWVRQPPSRGLEWLGMIWGDGSTDYQSTLKSRLSISKDTSKSQVFLKMNSLTTDDTARYYCARDLPMDYWGQGTSVTVSS
VL: DIQMTQSPSSLSASVGGRVTITCKASQDINKYIAWYQHKPGKGPSLLIHYTSTLQPGVPSRFSGSGSGRDYSFSISNLQPEDIATYYCLQYANLLTFGGGTKLEIKR
Consider B7, for which, in assay [4], the “IC50 for inhibition … Test 1” value is 1.5 µg/mL and the “IC50 for inhibition … Test 2” value came out at 2.3 µg/mL.

B8: humanized anti-GPVI Fab VL1/VH5 (Fab, V domains shown)
VH: QVQLQESGPGLVAPSQSLSITCTVSGFSLTGYGVNWVRQPPSRGLEWLGMIWGDGSTDYQSTLKSRLSISKDNSKSQVFLKMNSLTTDDTARYYCARDLPMDEWGQGTSVTVSS
VL: DIQMTQSPSSLSASVGGRVTITCKASQDINKYIAWYQHKPGKGPSLLIHYTSTLQPGVPSRFSGSGSGRDYSFSISNLQPEDIATYYCLQYANLLTFGGGTKLEIKR
Take B8: in assay [4], the “IC50 for inhibition … Test 1” value came out at 1.9 µg/mL; the “IC50 for inhibition … Test 2” value came out at 2.3 µg/mL; the “IC50 for inhibition … Test 3” value was 1.2 µg/mL.

B9: humanized anti-GPVI Fab VL1/VH4 (Fab, V domains shown)
VH: QVQLQESGPGLVAPSQSLSITCTVSGFSLTYYGVNWVRQPPSRGLEWLGMIWGDGSTDYQSTLKSRLSISKDNSKSQVFLKMNSLTTDDTARYYCARDLPMDYWGQGTSVTVSS
VL: DIQMTQSPSSLSASVGGRVTITCKASQDINKYIAWYQHKPGKGPSLLIHYTSTLQPGVPSRFSGSGSGRDYSFSISNLQPEDIATYYCLQYANLLTFGGGTKLEIKR
Consider B9, for which, in assay [4], the “IC50 for inhibition … Test 1” value is 1.6 µg/mL; the “IC50 for inhibition … Test 2” value was determined as 1.8 µg/mL; the “IC50 for inhibition … Test 3” value was determined as 1.2 µg/mL.

For the origin of these results see EP2402371A1 (SANOFI, dated 2012).
